This is an account of results in paper PMC3458822, “Dimerization of DOCK2 Is Essential for DOCK2-Mediated Rac Activation and Lymphocyte Migration” (PLoS ONE, 2012).

Data set [1] has as its target murine DOCK2 DHR-2 domain, wild type (murine). Nature of the data set: SEC; Superdex 200 10/300 GL, 20 mM Tris-HCl pH 8.0, 250 mM NaCl, 5 mM 2-mercaptoethanol, 1 ml/minute, 20°C; size estimated against protein standards.
Data set [2] deals with the molecule itself. In words: crystal structure; human DOCK2 DHR-2 in complex with Rac1, PDB 3B13.

For the molecule “murine DOCK2 DHR-2 domain, wild type (domain or fragment)”, the stoichiometry N in data set [1] was 2.

B1: human DOCK2 DHR-2 domain (domain or fragment)
chain: SKDNRMSCTVNLLNFYKDNNREEMYIRYLYKLRDLHLDCDNYTEAAYTLLLHTWLLKWSDEQCASQVMQTGQQHPQTHRQLKETLYETIIGYFDKGKMWEEAISLCKELAEQYEMEIFDYELLSQNLIQQAKFYESIMKILRPKPDYFAVGYYGQGFPSFLRNKVFIYRGKEYERREDFQMQLMTQFPNAEKMNTTSAPGDDVKNAPGQYIQCFTVQPVLDEHPRFKNKPVPDQIINFYKSNYVQRFHYSRPVRRGTVDPENEFASMWIERTSFVTAYKLPGILRWFEVVHMSQTTISPLENAIETMSTANEKILMMINQYQSDETLPINPLSMLLNGIVDPAVMGGFAKYEKAFFTEEYVRDHPEDQDKLTHLKDLIAWQIPFLGAGIKIHEKRVSDNLRPFHDRMEECFKNLKMKVEKEYGVREM
notes: DOCK2, human, DHR-2 domain (lobes A, B and C) as crystallised with Rac1; Dimerises through lobe A in the crystal
With B1, in data set [2], the “stoichiometry N” value turned out to be 2.
